Test results from patent publication US20030143656A1 (published 2003).
Positions count from the first letter of the chain named. In names and notes the source's numbering stands.

T1: GST-PDK1 L155E (human, UniProt O15530 1-556)
T1 construct: range 1-556; not shown: N-terminal GST tag, pEBG2T vector
T1 sequence (looked up): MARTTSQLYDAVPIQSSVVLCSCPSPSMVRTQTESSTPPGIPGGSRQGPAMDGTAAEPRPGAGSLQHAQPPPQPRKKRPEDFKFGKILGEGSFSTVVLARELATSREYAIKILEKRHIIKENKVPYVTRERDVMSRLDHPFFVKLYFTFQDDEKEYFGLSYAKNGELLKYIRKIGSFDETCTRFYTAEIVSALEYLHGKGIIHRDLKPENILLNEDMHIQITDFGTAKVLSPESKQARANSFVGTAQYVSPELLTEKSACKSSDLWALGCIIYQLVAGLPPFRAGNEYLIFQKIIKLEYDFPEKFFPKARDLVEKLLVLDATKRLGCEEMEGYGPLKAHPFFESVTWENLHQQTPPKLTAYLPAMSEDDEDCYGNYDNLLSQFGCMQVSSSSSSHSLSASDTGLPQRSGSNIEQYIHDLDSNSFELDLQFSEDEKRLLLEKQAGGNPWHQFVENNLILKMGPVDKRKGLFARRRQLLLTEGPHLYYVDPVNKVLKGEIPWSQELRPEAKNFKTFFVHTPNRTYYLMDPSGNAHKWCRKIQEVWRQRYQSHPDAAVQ

T2: GST-PDK1 (wild type) (human, UniProt O15530 1-556)
T2 sequence (looked up): T1 sequence (looked up) with E155L

B1: full length S6K1 mutant in which Thr412 and all five phosphorylated C-terminal residues were mutated to acidic residues (enzyme, human, UniProt P23443 1-525, looked up)
chain: MRRRRRRDGFYPAPDFRDREAEDMAGVFDIDLDQPEDAGSEDELEEGGQLNESMDHGGVGPYELGMEHCEKFEISETSVNRGPEKIRPECFELLRVLGKGGYGKVFQVRKVTGANTGKIFAMKVLKKAMIVRNAKDTAHTKAERNILEEVKHPFIVDLIYAFQTGGKLYLILEYLSGGELFMQLEREGIFMEDTACFYLAEISMALGHLHQKGIIYRDLKPENIMLNHQGHVKLTDFGLCKESIHDGTVTHTFCGTIEYMAPEILMRSGHNRAVDWWSLGALMYDMLTGAPPFTGENRKKTIDKILKCKLNLPPYLTQEARDLLKKLLKRNAASRLGAGPGDAGEVQAHPFFRHINWEELLARKVEPPFKPLLQSEEDVSQFDSKFTRQTPVDSPDDSTLSESANQVFLGFEYVAPSVLESVKEKFSFEPKIRDPRRFIGDPREPVDPVKFDPGDFWGRGASASTANPQTPVEYPMETSGIEQMDVTMSGEASAPLPIRQPNSGPYKKQAFPMISKRPEHLRMNL
notes: mature
B2: GST-PDK1 K115A (enzyme, not shown: a dimerising Fc or GST; small tags and cut ends)
chain: T1 sequence (looked up) with K115A, E155L
B3: GST-PDK1 Q150A (enzyme, human, UniProt O15530 1-556, looked up)
chain: T1 sequence (looked up) with Q150A, E155L
notes: range 1-556; not shown: N-terminal GST tag, pEBG2T vector
B4: GST-PDK1 L155A (enzyme, human, UniProt O15530 1-556, looked up)
chain: T1 sequence (looked up) with E155A
notes: as for B3
B5: PIFtide (peptide)
peptide: REPRILSEEEQEMFRDFDYIADWC

Columns and labels:
GST-PDK1 L155E = molecular target: T1, GST-PDK1 L155E; test: binding experiment not described (presumably pull-down)
Protocol: Binding of PDK1 to SGK1 and S6K1. For the data presented in FIG. 22, 293 cells were cotransfected with 10 μg of the wild type or mutant PDK1 plasmid and 10 μg of either the wild type or mutant S6K1 or SGK1. 36 h post-transfection the cells were lysed in 0.6 ml of Buffer A and the lysates were cleared by centrifugation at 13 000×g for 10 min at 2° C., and 0.5 ml of supernatant was incubated for 2 h at 4° C. with 30 μl of glutathione-Sepharose. The beads were washed twice in Buffer A containing 0.5 M NaCl, followed by two further washes in Buffer A. The beads were resuspended in 30 μl Laemmli Sample Buffer and subjected to SDS polyacrylamide gel electrophoresis. The gels were either stained with Coomassie blue, or analysed by immunoblotting with either anti-Flag or anti-Myc antibodies (described below).
Interaction of S6K1 and SGK1 with PDK1. […] We therefore tested whether this could be explained by the inability of full length S6K1 to interact with PDK1. To test this hypothesis we coexpressed in 293 cells GST-PDK1 together with full length S6K1, fill length S6K1[T412E] and the C-terminal truncated forms of these mutants (S6K1-T2 and S6K1-T2[T412E]) which have Flag epitope tags. Glutathione-Sepharose “pull-downs” of GST-PDK1 from these extracts were immunoblotted for the presence of Flag epitope tagged S6K1. […] S6K1-T2[T412E] interacted moderately better with GST-PDK1 compared to S6K1-T2.

PIFtide [1] = molecular target: B5; test: method not stated (reference mark lost)
PIFtide [2] = molecular target: B5; test: method not stated (unpublished data)
GST-PDK1 K115A = molecular target: B2; test: cell-based or functional assay
GST-PDK1 L155A = molecular target: B4; test: cell-based or functional assay
GST-PDK1 (wild type) = molecular target: T2, GST-PDK1 (wild type); test: cell-based or functional assay
GST-PDK1 Q150A = molecular target: B3; test: cell-based or functional assay

B1
binding result (GST-PDK1 L155E): no binding

B2
fold decrease in affinity for PIFtide (PIFtide [1]): ~10 fold

B3
fold decrease in affinity for PIFtide (PIFtide [1]): ~10 fold

B4
fold decrease in affinity for PIFtide (PIFtide [2]): ~10 fold

B5
inhibition by 2 µM PIFtide of the activation of S6K1-T2[T412E] and SGK1[T422D] by the PDK1 mutant (GST-PDK1 K115A): ~50%
inhibition by 35 µM PIFtide of the activation of S6K1-T2[T412E] and SGK1[T422D] by the PDK1 mutant (GST-PDK1 K115A): > 95%
inhibition by 2 µM PIFtide of the activation of S6K1-T2[T412E] and SGK1[T422D] by the PDK1 mutant (GST-PDK1 L155A): ~50%
inhibition by 35 µM PIFtide of the activation of S6K1-T2[T412E] and SGK1[T422D] by the PDK1 mutant (GST-PDK1 L155A): > 95%
increase of PDK1 activity towards T308tide (GST-PDK1 (wild type)): ≤ 4 fold
increase of TM50 (heat inactivation of GST-PDK1) (GST-PDK1 (wild type)): 8 to 10 °C
inhibition by 2 µM PIFtide of the activation of S6K1[T412E] by wild type PDK1 (GST-PDK1 (wild type)): > 20 fold
inhibition by 2 µM PIFtide of the activation of S6K1-T2[T412E] and SGK1[T422D] by the PDK1 mutant (GST-PDK1 Q150A): ~50%
inhibition by 35 µM PIFtide of the activation of S6K1-T2[T412E] and SGK1[T422D] by the PDK1 mutant (GST-PDK1 Q150A): > 95%
stimulation of the PDK1 mutant towards T308tide by PIF (GST-PDK1 Q150A): ~2 fold

REPRILSEEEQEMFRDFAYLADWC [D978A-PIFtide]
fold decrease in activation of PDK1 towards T308tide, against wild type PIFtide (GST-PDK1 (wild type)): 8 fold
